Data published in paper PMC11335225.
Residue numbers refer to the chain shown, from its start. In names and notes the source's numbering stands.

Experiments:
[1] = biological target: flag-tagged KV7.2 channel subunit (UniProt O43526)
[2] = biological target: flag-tagged KV7.2 channel subunit (UniProt O43526); remark: listed apart in the source

UniProt O43526, sequence (O43526 whole entry): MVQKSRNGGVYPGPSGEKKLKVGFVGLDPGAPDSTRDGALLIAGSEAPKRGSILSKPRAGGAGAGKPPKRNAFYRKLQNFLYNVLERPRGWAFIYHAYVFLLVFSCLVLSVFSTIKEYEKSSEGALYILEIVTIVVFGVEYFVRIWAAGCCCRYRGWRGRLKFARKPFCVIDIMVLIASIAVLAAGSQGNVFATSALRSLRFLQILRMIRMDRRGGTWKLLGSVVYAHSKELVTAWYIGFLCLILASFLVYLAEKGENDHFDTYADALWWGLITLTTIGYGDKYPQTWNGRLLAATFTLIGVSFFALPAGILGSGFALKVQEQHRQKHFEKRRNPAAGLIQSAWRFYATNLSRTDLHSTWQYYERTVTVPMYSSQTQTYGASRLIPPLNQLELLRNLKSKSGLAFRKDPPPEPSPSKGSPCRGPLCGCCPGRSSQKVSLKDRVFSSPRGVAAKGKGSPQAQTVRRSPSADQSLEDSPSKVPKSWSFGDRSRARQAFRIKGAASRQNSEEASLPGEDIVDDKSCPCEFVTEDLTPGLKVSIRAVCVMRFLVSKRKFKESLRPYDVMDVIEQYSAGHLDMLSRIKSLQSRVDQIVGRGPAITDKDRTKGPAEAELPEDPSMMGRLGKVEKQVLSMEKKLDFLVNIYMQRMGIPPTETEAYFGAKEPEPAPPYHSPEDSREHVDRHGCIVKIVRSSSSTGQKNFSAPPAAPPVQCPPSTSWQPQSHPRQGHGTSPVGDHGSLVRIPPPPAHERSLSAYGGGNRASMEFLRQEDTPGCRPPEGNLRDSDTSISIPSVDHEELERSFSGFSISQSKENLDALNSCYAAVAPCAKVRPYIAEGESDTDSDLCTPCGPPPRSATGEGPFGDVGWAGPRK

pore-mutated KV8.1(AAA) (from UniProt Q6PIU1 1-500) (natural protein)
steady-state current density at +20 mV (patch clamp) in CHO cells co-transfected with KV8.1(AAA) and wild-type KV7.2 (4:1), relative to both wild-type constructs [1]: 50% | current amplitude (patch clamp) in CHO cells co-transfected with KV8.1(AAA) and wild-type KV7.2 at a 1:1 ratio, relative to co-transfection of wild-type channels [2]: 49.4%

B1: KV8.1 G399R (natural protein)
chain: MPSSGRALLDSPLDSGSLTSLDSSVFCSEGEGEPLALGDCFTVNVGGSRFVLSQQALSCFPHTRLGKLAVVVASYRRPGALAAVPSPLELCDDANPVDNEYFFDRSSQAFRYVLHYYRTGRLHVMEQLCALSFLQEIQYWGIDELSIDSCCRDRYFRRKELSETLDFKKDTEDQESQHESEQDFSQGPCPTVRQKLWNILEKPGSSTAARIFGVISIIFVVVSIINMALMSAELSWLDLQLLEILEYVCISWFTGEFVLRFLCVRDRCRFLRKVPNIIDLLAILPFYITLLVESLSGSQTTQELENVGRIVQVLRLLRALRMLKLGRHSTGLRSLGMTITQCYEEVGLLLLFLSVGISIFSTVEYFAEQSIPDTTFTSVPCAWWWATTSMTTVGYRDIRPDTTTGKIVAFMCILSGILVLALPIAIINDRFSACYFTLKLKEAAVRQREALKKLTKNIATDSYISVNLRDVYARSIMEMLRLKGRERASTRSSGGDDFWF
current amplitude (patch clamp) in CHO cells co-transfected with KV8.1 G399R and wild-type KV7.2 (4:1), relative to both wild-type constructs [2]: 54%

B2: KV8.1 W388G (natural protein)
chain: B1 chain with W385G, R396G
current amplitude (patch clamp) in CHO cells co-transfected with KV8.1 W388G and wild-type KV7.2 (4:1), relative to both wild-type constructs [2]: 44.1%
